Biological target: T1, 重组GFAP蛋白 (人GFAP第292位至第432位氨基酸片段 + 组氨酸标签, 大肠杆菌表达) (human, UniProt P14136 292-432)
T1 construct: also called 重组GFAP蛋白片段; 免疫原; not shown: Histidine tag from vector pET28a
Assay: Indirect ELISA on coated recombinant GFAP protein. The affinity constant was calculated from the antibody concentration at half of the plateau OD450.

T1 sequence (P14136 292-432): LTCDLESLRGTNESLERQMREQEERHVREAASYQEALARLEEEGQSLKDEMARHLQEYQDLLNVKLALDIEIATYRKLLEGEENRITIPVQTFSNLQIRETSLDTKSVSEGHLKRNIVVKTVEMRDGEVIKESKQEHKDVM

Ka: 6.53e+09 M⁻¹
B1: 抗GFAP蛋白单克隆抗体(10G1G11H7) (antibody, V domains shown)
VH: EVQLQQSGAELVKPGASVKLSCTASGFNIKDTYMHWVKQRPEQGLEWIGRIDPANGKTKYDPKFQGKATITADTSSNTAYLQLSSLTSEDTAVYYCARRGIMTTVPFAYWGQGTLVTVSA
VL: DIVMTQAAPSVPVTPGESVSISCRSSKSLLHSNGNTYLYWFLQRPGQSPQLLIYRMSNLTSGVPDRFSGSGSGTAFTLRISRVEAEDVGVYYCMQHLEYPFTFGGGTKLEIK
